According to the DeepSol protein solubility set:

Assay: soluble on expression in E. coli; label from the status in PepcDB or PDB records

| Sequence | soluble on expression in E. coli |
| --- | --- |
| MGSDKIHHHHHHMRRSKLTPTTPPMFKNLSVYRIQGDWHPAIAEAEASLQKFRFAECGATQAISAGWVEPRGEKHGPLVEAVGDQWMLTLCIQTKLLPAGVIKQHVDARIEQIKQREARRPGKKEVREIKEAVILELLPKAFSKKEHISVWIDRKNKLVAIDTASQSKCDTATSALVKTLDGLAIGLIQTQMSPGTCMSQWLMDGEAPDGFGVERECELKSSDESRSAVKYSRHVLDIDEVKQHLTHGKTPTQLAMTWTDRVSFTLTDAMALKKVTFLETPLMKKKAGGDDPFDANAAIVTGELSQLIPQLIEALGGELEFTGESGEGAREAKSEEREQETAEA | not soluble |
| MGSDKIHHHHHHMPEILINKPVEDELVESYLLYSMSVIVGRAIPDVRDGLKPVQRRILYGMYELGLKHNSPTKKSARIVGEVMGKYHPHGDAPVYDALVRMAQPFTMRYPLIEGQGNFGSIDRDPPAAMRYTEARLTRLAEEMLEDIEKNTVNMIDNFDGTLKEPEVLPSKVPNLIINGASGIAVGMATNIPPHNLSETVDALIYLIDHPEATVEELMQFIKGPDFPTGAVVVNASELKKVYEEGRGRIIVRGKVHVEDGKRVKRIVITEIPYGVSKAGLIEQIAKIAKDDESLPIRNIRDESDKRGMRIVIEIPKDANEEVIINNLYKRTALQDYFNVQMLVIDKHKRPRLMNLKGLMEAFLEHRFEVIRRRARYEYEQYTRRAHVVEGLLKAARAIGVVVDIVRNSKDVESARQSLMETLEITEEQAKAILDMRLSRLTSLEIENLQNEYSDLVRKISEVKEILEKDEKVKEIMKKEFLYLKQQYGDPRRTEVTDQSIEYNEEELIVEEDVVITLSHKGYLKSTPLNSYRSQKRGGKGITVSKLSEDDEVEFVVVAKNTSSTLFITNLGRAYVLKNYQLETTGRNTRGRHITAFLNLEDTEKIVALASLNGEGRDLVIATKSGKIKRTALKEFENATSNRGVRAIKIEPGDEIVSARVVNSEKETLIVATKMGMAIRFPVSDVRRMGRNAAGVQAIKLQPGDEVVSVDVIPPGEEGEILTVTEKGFGKRTPVQLYRIQRRGGTGLRNISDVNKTGYVVAVRYVRGDEEIVVVTRNGMMIRFPVSEIGVIGRVTKGVKLIELGDDTISKVAVVKD | not soluble |
| MNIITLKVAIVEPLPMIRAGLEALLKKITGYKIQFIDAPADNGWVDVISFYCPDVVFMNPLVSGLTRNESDKACPQSRYVGLLTTPIDSNMLHNYDDTLSVHATVEELKQLLERLYQKTLEPEESGEEQQTLTNREKEIVVGVVKGMTNKEIAEELFLSTHTVITHRRNIAKKLQIHSPSGLTIYAIMNKLVNLDEIAH | not soluble |
| MFKFLMIISMSKHIKRAAKNREDLLEAAVEMFKTHGMMVPLQVIIDHANVGRATFYRNFADRKMLVYALLEQSLVKLKQRTQLYQTYPDGLIRLIQSHVNHLNHLSALMEYWRVLDYSDTSLQALIQQHQRIIQPLIDQAILHKVCRPDFNFEDYRSIVTMLSSSFRGHTEQEQIRMASRVIDLLLNGICLNQEESHG | not soluble |
| GSHMLKEVWEELDGLDPNRFNPKTFFILHDINSDGVLDEQELEALFTKELEKVYDPKNEEDDMREMEEERLRMREHVMKNVDTNQDRLVTLEEFLASTQRKEF | soluble |
| MSKKQSSTPHDALFKLFLRQPETARDFLAFHLPAPIHALCDMKTLKLESRSFIDDDLRESYSDVLWSVKTEQGPGYIYCLIEHQSTSNKLIAFRMMRYAIAAMQNHLDAGYKTLPMVVPLLFYHGIESPYPYSLCWLDCFADPKLARQLYASAFPLIDVTVMPDDEIMQHRRMALLELIQKHIRQRDLMGLVEQMACLLSSGYANDRQIKGLFNYILQTGDAVRFNDFIDGVAERSPKHKESLMTIAERLRQEGEQSKALHIAKIMLESGVPLADIMRFTGLSEEELAAASRLAP | not soluble |
| MSNEEARSAGDLRNTGLSLRHDRTWDYELDRIVDEVERKDAEKVGLQFPEGLKRRGPAVADDLRARLDDTRIMLSGQPCYGACDLDTYLMRRTDVFVHFGHSPMKESDSIIYVPLFSNVDVEPIMQEARDELHDGDVGLVTTAQHMNQFEEMRTWLEERGYTVHTRRGDDRLTNEGQVLGCNYASADIDADQVLYVGGGKFHPLGLAMEHPEKNVVIADPVNNAVSIADAEQFLKERYASVHKAMDAEQWGVIFCTKIGQGRFDQAEEIVENNDNAYLITMDEVTPDRLMNFDMDAFVNTGCPRITTDDGPQFHKPMLTPGEYEIAVGNKPLEDLSFDTFHGTWLEHHHHHH | not soluble |
| MAAINTKVKKAVIPVAGLGTRMLPATKAIPKEMLPLVDKPLIQYVVNECIAAGITEIVLVTHSSKNSIENHFDTSFELEAMLEKRVKRQLLDEVQSICPPHVTIMQVRQGLAKGLGHAVLCAHPVVGDEPVAVILPDVILDEYESDLSQDNLAEMIRRFDETGHSQIMVEPVADVTAYGVVDCKGVELAPGESVPMVGVVEKPKADVAPSNLAIVGRYVLSADIWPLLAKTPPGAGDEIQLTDAIDMLIEKETVEAYHMKGKSHDCGNKLGYMQAFVEYGIRHNTLGTEFKAWLEEEMGIKK | soluble |
| MNTRTIYLAGGSFWGLEAYFQRIDGVVDAVSGYANGNTKNPSYEDVSYRHTGHAETVKVTYDADKLSLDDILQYFFRVVDPTSLNKQGNDTGTQYRSGVYYTDPAEKAVIAAALKREQQKYQLPLVVENEPLKNFYDAEEYHQDYLIKNPNGYCHIDIRKADEPLPGKTKTAPQGKGFDAATYKKPSDAELKRT | soluble |
| MGSDKIHHHHHHMYANKVKKIAAVHDLSGMGRVSLTVVIPILSSMGFQVCPLPTAVLSNHTQYPGFSFLDLTDEMPKIIAEWKKLEVQFDAIYTGYLGSPRQIQIVSDFIKDFRQPDSLIVADPVLGDNGRLYTNFDMEMVKEMRHLITKADVITPNLTELFYLLDEPYKADSTDEELKEYLRLLSDKGPQVVIITSVPVHDEPHKTSVYAYNRQGNRYWKVTCPYLPAHYPGTGDTFTSVITGSLMQGDSLPMALDRATQFILQGIRATFGYEYDNREGILLEKVLHNLDMPIQMASYELI | not soluble |
| MTMTETMNVDLLLEMESVHVKPFTEHDKVILRSYEAVVDGIASLIGPFCEIVLHSLEDLNTSAIKIANGENTGRQVGSPITDMALKMLRDIEGSERNFSRSYFTRAKGGVLMKSITVAIRNGENRVIGLLCINVNLDAPFSQVLKSFMPTQEAQEAASSVNFASDVEELVDQTVERTIEEINGDKSVSNNTKNRQIVMALFDKGIFDIKDAINRVADRLNISKHTVYLYIRQRKTEDDEK | not soluble |
| PTLLTARLRWTDKVTLLADPPDKAMGQRSGPWMGEAITALLRAAEREVRLITPYFVPGNDGCDLLTELAQRGVRLSIMTNALSVTDMVLVHGAYRHYRLPLLKAGAELYEFGPPPRPCGRRDLLHTKVFLIDGRQAVVGSLNFDLRSAFMNTELGVLFEEPDLFAELEAMFDRQSAPDEAHRLSLEKGRLRWSVTEEGRAALARFEPDSPPALRAVSWVVGHLPIQ | not soluble |
| MRMKALLIDYGSGNLRSAAKALEAAGFSVAVAQDPKAHEEADLLVLPGQGHFGQVMRAFQESGFVERVRRHLERGLPFLGICVGMQVLYEGSEEAPGVRGLGLVPGEVRRFRAGRVPQMGWNALEFGGAFAPLTGRHFYFANSYYGPLTPYSLGKGEYEGTPFTALLAKENLLAPQFHPEKSGKAGLAFLALARRYFEVL | soluble |
| MNKTLIAAAVAGIVLLASNAQAQTVPEGYQLQQVLMMSRHNLRAPLANNGSVLEQSTPNKWPEWDVPGGQLTTKGGVLEVYMGHYMREWLAEQGMVKSGECPPPYTVYAYANSLQRTVATAQFFITGAFPGCDIPVHHQEKMGTMDPTFNPVITDDSAAFSEQAVAAMEKELSKLQLTDSYQLLEKIVNYKDSPACKEKQQCSLVDGKNTFSAKYQQEPGVSGPLKVGNSLVDAFTLQYYEGFPMDQVAWGEIKSDQQWKVLSKLKNGYQDSLFTSPEVARNVAKPLVSYIDKALVTDRTSAPKITVLVGHDSNIASLLTALDFKPYQLHDQNERTPIGGKIVFQRWHDSKANRDLMKIEYVYQSAEQLRNADALTLQAPAQRVTLELSGCPIDADGFCPMDKFDSVLNEAVK | soluble |
| MKIAVVGAGLTGLKTAKELAEHAKVVVFEPDDVGGLVATFREFSIEKFYHHCFRDDAFLLEEIKRCGLKSKLVWKIAKTGFAANGKIYPLNTPFEILRYPLLTFGEKIRLARFTLKSRKLNYEDFDDVGVSEGIREELGEGLLERFFMPLLRSKFGENAEKVSYAWLLGRVAIRSNRKYSGEEIGYIRHGFQQLVDKMAEGLEIRRERARIRKNARWDVNGEDFDAVVYTAPLSELGELAEKLGIPEVRYQSSVCALIGAEETLTENIYWTNIADKMSFGAVIEHTNFMPFEDYGIHLMYLAAYSTPDGWLFNLSDKEIEKLFLSDLRKLGFKTESVRFVRVFKAKYSGPIYEKGYRRKITPYRVAEGFYVAGMTSRPNYPERSMNGSIRAGKEVAEQVKEDLLLEHHHHHH | soluble |
| GSASDNAAYWSIATTMRSDNKALGAVSDALGMGAAKVDTASAGMDAAIKVVTDIKAKVVAAKEQGVDKTKVQEEVSQLLDQLKSIGTSASFNGENWLVSSANATKTVVSGFVRDAGGTVSVKTTDYALDANSMLYTEGTPGTIDANSGILNATGATTTVGAKTYTQISVLDMNVGTDDLDNALYSVETALTKMTSAGAKLGSLSARIDLQSGFADKLSDTIEKGVGRLV | not soluble |
| MKSFKEQYTLDERLAESREIIAKYPTRIPVIAEKYCKTDLPAIEKKKFLVPRDMSVGQFIYILSARLHLSPGKALFVFVNNTLPQTAALMDSVYESYKDDDGFVYMCYSSEKTFG | not soluble |
| MGSDKIHHHHHHMNRMNDALELVKKLRTFLPAESVLHETEDVRPYECDGLSAYRQTPMIVALPRTEDEVAGILKICDALKIPVVARGAGTGLSGGALPHPQGVLLSLAKLKNILEIDPAARTARVQPGVRNLAISEAAAPYGLYYAPDPSSQIACSIGGNVAENSGGVHCLKYGLTVHNILKLRVLTIEGELLEMGADGLDAPGYDLLALMTGSEGMLGIVTEVTVKLTPRPEKAQVVLASFDDIRDAGNAVANVIGAGIIPAGMEMMDKITTGAVEEYVHAGYNVEAAAILLCESDGAEEEVAEEIERINEIMRQSGATEVRISRDEAERARFWAGRKAAFPAAGRVSPDYYCMDGTIPRKNLASVLTGIEALSAEYGLRCMNVFHAGDGNLHPLILYDANHPGELELTEEFGAKILRMCIEAGGTITGEHGVGIEKINQMCSQFKTGELEMFHAVKAAFDPASLLNPGKAIPTLRRCAEQGAMHVHRGKEKFPELPRF | not soluble |
| MSLDSDPDTLVVHTQLGTTAPGSPTYLAAVDRFREENPGVKIKNLVNGDDLAQVYETSRLARKEADVVMVNLYDKTLAWTDVGATVDVKPYLDDWGLRGRVLPAALADWTDDEGRVRAFPYFATNWPVAYNRALLDRAGVDAIPTTGDQLIAAARKLRAKGIAPVTVGGNDWTGQKLLAQIIQTFLSQDEARHVYSTGDFGVRGARLGIEYFAHLRDAGVFADKAQGLTSDSMTTQFNTEEAAVQSAMSSALAKVPEKVAGHTEVGGWPLADGAAHDGPTVIRAYTLIGFWISPNGVRKIEQVEKFLRFMYRPDVVARFVTESGRDMALRTDAVSTGFPLVGAAQRLGSEVSQVLLPDVYVPPAAAQPLITATSTSFTRGTSPARVRAALESAYRSVEGHHHHHH | soluble |
| MAILYSKMKRSVTIKLQPSKEQEKILFELADVGAKVWNRVNYLRRQEFFEGKLVDFNRTEKIVYEEFKQETGSATVQQIARKNAEAWRSFFTNCPSGSSQNHQTTLEHHHHHH | not soluble |
| MMTTIVMESTTEKVCEASSDACPKLETMFDATPQIVEIDGCQDITCPGNAVPYLVATFPASEIEPFYPMDVVNPFNVIPPSTISGSVIDYYGKICDGGVWKFTKYPDGIHVNDSDTIMGEDGSLTGKKSTLLVVTWYGFC | not soluble |
